Data reported in US20170029530A1 (AbbVie / Abbott, published 2017).
“And” between values parts separate entries of the source, which are not always exact repeats. Equal entries are not always repeated.

B1: SC34.36 (antibody, mouse IgG2a, V domains shown)
VH: QVQLQQPGSVLVRPGASVKLSCKASGYTFTSYWMHWVKQRPGQGLEWIGEISPTSGRPNYNAKFKGKATLTVDTSSSTAYVDLSSLTSEDSAVYYCAKGEGYYGKAFDYWGQGTTLTVSS
VL: DIQMTQTTSSLSASLGDRVTISCRASQDISNYLNWYQQKPDGTVKLLIYYTSRLHSGVPSRFSGSGSGTDYSLTISNLEQEDIATYFCQQGNTLPWTFGGGTKLEIK
B2: SC34.11 (antibody, mouse IgG2a, V domains shown)
VH: QVQLQQSGAELAKPGASVKMSCKASGYTFTNYWMIWVKQRPGQGLEWIGYIDPTTDYTAYNQKFKDKATVTADKSSSTAYMQLNSLTSEDSAVYYCARGGNVALDFWGQGTSVTVSS
VL: DIVMSQSPSSLAVSAGEKVTMSCKSSQSLLNSRTRKNYLAWYQQKPGQSPKLLIYWASTRESGVPDRFTGSGSGTDFTLTISSVQAEDLAVYYCKESYNLWTFGGGTKLEIK
B3: SC34.46 (antibody, mouse IgG1, V domains shown)
VH: QVQLQQSGTELARPGTSVKLSCKASGYTFRSYAISWVRQRTGQGLEWIGEIYPGSDKTYYNESLKGKVTLTTDKCSSTANMQLTSLTSEDSAVYFCARVHDYGSWFPYWGQGTLVTVSA
VL: DIVMSQSPSSLAVSVGEKVTMSCKSSQSLLYSKYQKNFLAWYQQKPGQSPKLLIYWASTRESGVPDRFTGSGSGTDFTLTISNVKAEDLAVYYCQQYYRYPLTFGAGTTLELK
B4: hSC34.14 humanized anti-DPEP3 antibody (antibody, human IgG1, kappa, V domains shown)
VH: QVQLVQSGAEVKKPGASVKVSCKASGYTFTDYYMHWVRQAPGQRLEWMGRVNPKKGGTTYNQKFEGRVTITRDTSASTAYMELSSLRSEDTAVYYCAMGIYYSYDASFDYWGQGTTVTVSS
VL: DIQMTQSPSSLSASVGDRVTITCRTSEHIYSYLAWYQQKPGKAPKLLIYNAKTLAEGVPSRFSGSGSGTDFTLTISSLQPEDFATYYCQHHYDTPYTFGQGTKLEIKR
notes: Human IgG1/kappa
B5: hSC34.11 humanized anti-DPEP3 antibody (antibody, human IgG1, kappa, V domains shown)
VH: EVQLVQSGAEVKKPGESLKISCKGSGYSFTNYWMIWVRQMPGKGLEWMGYIDPTTDYTAYNQKFKDQVTISADKSISTAYLQWSSLKASDTAMYYCARGGNVALDFWGQGTLVTVSS
VL: DIQMTQSPSSLSASVGDRVTITCKSSQSLLNSRTRKNYLAWYQQKPGKVPKLLIYWASTRESGVPSRFSGSGSGTDFTLTISSLQPEDVATYYCKESYNLWTFGGGTKVEIKR
notes: Human IgG1/kappa; The order is confirmed for hSC34.2 and hSC34.28

How the values were obtained:
mDPEP3 = target: T1, mDPEP3 (limits assumed); test: ELISA, coated antigen
T1 construct: also called mouse DPEP3-His; mouse DPEP3 ECD with histidine tag
T1 single chain: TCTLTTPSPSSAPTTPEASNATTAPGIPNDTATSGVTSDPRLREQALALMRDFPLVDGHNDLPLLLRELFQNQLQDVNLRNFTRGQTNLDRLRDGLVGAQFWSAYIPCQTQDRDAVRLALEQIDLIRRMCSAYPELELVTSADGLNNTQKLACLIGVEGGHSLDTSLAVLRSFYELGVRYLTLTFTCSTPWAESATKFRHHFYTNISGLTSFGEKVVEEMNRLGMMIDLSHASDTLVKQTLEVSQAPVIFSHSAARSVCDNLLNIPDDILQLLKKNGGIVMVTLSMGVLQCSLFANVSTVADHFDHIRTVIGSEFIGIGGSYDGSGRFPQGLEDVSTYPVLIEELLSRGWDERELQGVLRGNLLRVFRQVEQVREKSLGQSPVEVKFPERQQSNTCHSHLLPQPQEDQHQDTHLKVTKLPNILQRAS

[1] = target: T2, rat DPEP3 ECD with histidine tag (rat, UniProt Q5U2X4 36-459, limits assumed); test: ELISA, coated antigen
T2 construct: also called rDPEP3-His; ratDPEP3-His; not shown: histidine tag
T2 sequence: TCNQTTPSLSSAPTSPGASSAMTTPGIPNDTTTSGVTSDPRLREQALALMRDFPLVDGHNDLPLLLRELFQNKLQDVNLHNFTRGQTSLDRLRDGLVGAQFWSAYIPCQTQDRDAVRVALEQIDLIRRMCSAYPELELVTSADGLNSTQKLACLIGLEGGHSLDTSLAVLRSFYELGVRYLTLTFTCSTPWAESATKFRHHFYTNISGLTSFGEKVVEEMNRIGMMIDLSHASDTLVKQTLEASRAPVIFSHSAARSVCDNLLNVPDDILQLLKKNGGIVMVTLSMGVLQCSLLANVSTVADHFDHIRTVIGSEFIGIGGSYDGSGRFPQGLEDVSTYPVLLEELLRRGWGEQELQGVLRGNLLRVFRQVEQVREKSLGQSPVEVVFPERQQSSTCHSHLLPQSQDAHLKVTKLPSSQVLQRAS

[2] = target: T3, hDPEP2 ECD with histidine tag (human, UniProt Q9H4A9 33-463); test: ELISA, coated antigen
T3 construct: also called hDPEP2-His; not shown: histidine tag

[3] = target: T4, human DPEP3 (hDPEP3) protein on the cell surface (human, UniProt Q9H4B8 36-463, GPI anchor at the C-terminus after removal of the final 25 amino acids); test: flow cytometry, HEK-293T cells overexpressing hDPEP3
T4 construct: The assay field says which
T4 sequence: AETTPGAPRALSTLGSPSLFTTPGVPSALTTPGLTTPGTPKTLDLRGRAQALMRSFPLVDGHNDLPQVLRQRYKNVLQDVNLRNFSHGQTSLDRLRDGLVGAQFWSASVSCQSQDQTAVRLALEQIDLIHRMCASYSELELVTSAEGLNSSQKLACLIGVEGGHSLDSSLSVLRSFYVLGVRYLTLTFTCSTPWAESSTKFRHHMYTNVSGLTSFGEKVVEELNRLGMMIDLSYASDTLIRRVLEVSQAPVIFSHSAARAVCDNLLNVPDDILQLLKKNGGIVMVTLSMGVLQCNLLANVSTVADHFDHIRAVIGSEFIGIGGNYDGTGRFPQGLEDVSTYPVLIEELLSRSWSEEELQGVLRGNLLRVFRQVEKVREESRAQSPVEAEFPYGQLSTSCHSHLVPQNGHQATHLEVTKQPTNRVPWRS
Experimental: The isolated cells were incubated for 30 mins. with anti-DPEP3 antibodies and washed twice in PBS/2% FCS. The cells were incubated for 15 mins. with 50 μL per sample AlexaFluor-647 labeled goat-anti-mouse IgG, Fc fragment specific secondary antibody diluted 1:200 in PBS/2% FCS, washed twice with PBS/2% FCS and re-suspended in PBS/2% FCS with DAPI ([…]). The cells were analyzed on a BD FACS Canto II flow cytometer with anti-DPEP3 antibodies.

cDPEP3 = target: T5, cDPEP3 (Macaca fascicularis, UniProt Q4R7M2); test: ELISA, coated antigen
T5 construct: extracellular domain; also called cynomolgus DPEP3-His; cynomolgus DPEP3 ECD with histidine tag
T5 sequence (single chain, looked up): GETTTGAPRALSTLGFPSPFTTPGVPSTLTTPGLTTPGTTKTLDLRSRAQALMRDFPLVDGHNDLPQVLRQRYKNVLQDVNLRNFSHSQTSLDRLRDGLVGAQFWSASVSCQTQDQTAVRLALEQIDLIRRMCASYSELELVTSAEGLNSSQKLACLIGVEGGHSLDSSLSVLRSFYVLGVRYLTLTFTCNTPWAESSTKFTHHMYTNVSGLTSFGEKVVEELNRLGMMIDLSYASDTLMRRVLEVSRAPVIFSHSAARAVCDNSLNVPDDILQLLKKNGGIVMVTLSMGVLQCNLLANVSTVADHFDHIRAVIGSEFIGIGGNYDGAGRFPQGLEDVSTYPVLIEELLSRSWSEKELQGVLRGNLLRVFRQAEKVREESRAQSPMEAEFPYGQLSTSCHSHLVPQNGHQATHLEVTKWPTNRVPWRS

[4] = target: T3, hDPEP2 ECD with histidine tag; test: ELISA, coated antigen, antibody 1 ug/mL
Experimental: The anti-DPEP3 antibodies were screened by ELISA for cross-reactivity with mouse, rat and cynomolgus DPEP3 and for cross reactivity to hDPEP2, the closest DPEP3 family member. ELISA was conducted as follows. Plates were coated with purified mouse, rat or cynomolgus DPEP3-His or hDPEP2-His at 0.3 μg/mL in 0.2 M carbonate-bicarbonate buffer, pH 9.4 overnight at 4° C. The protein solution was removed and the wells were blocked with 1% (w/v) BSA in PBS (PBSA), 100 μL/well for 1 hour at 37° C. Anti-DPEP3 antibody or a mouse isotype control antibody was then added at 1 μg/mL in 50 μL PBSA for 1 hour at room temperature. After washing with water, 50 μL/well HRP-labeled goat anti-mouse IgG antibody diluted 1:10,000 in PBSA was added for 30 min at room temperature. The plates were washed and developed by the addition of 40 μL/well of the TMB substrate solution (Thermo Scientific) at room temperature. An equal volume of 0.2 M H₂SO₄ was added to stop substrate development. The samples were then analyzed by spectrophotometer at OD 450. […] The cross reactivity results for exemplary DPEP3-specific antibodies can be seen in FIG. 4.

hDPEP3-ECD-His = target: T6, hDPEP3-ECD-His (human, UniProt Q9H4B8 36-463); test: BLI ForteBio RED, 200 nM hDPEP3-His, estimated grade
T6 construct: also called hDPEP3-His; monomeric hDPEP3-His antigen; not shown: histidine tag
T6 sequence: T4 sequence
How it was run: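 Antibodies were captured on anti-mouse Fc biosensors to 0.3-1 units, then exposed to hDPEP3-His for a 4 min association and a 3 min dissociation at 1000 rpm. A control mouse IgG response was subtracted, and KD was estimated qualitatively from the curves. Sensors were regenerated with 10 mM glycine, pH 1.7.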

[5] = target: T2, rat DPEP3 ECD with histidine tag; test: SPR, BIAcore 2000, antibody captured with anti-human capture kit
hDPEP1-His = target: T7, hDPEP1-His (human, UniProt P16444 17-385, limits assumed); test: as above
T7 construct: Neither the origin nor the limits of this protein are described; not shown: histidine tag
T7 sequence (looked up): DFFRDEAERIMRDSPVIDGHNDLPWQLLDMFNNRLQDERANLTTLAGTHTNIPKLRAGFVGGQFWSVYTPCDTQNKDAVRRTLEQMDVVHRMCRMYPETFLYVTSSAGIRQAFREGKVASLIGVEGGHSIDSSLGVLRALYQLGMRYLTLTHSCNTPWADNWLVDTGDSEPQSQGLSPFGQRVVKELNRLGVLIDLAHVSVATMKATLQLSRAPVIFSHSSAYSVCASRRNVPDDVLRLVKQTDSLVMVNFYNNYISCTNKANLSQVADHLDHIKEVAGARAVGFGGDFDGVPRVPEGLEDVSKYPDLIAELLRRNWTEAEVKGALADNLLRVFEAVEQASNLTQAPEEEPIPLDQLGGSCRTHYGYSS

[6] = target: T3, hDPEP2 ECD with histidine tag; test: as above

T3 sequence (Q9H4A9 33-463): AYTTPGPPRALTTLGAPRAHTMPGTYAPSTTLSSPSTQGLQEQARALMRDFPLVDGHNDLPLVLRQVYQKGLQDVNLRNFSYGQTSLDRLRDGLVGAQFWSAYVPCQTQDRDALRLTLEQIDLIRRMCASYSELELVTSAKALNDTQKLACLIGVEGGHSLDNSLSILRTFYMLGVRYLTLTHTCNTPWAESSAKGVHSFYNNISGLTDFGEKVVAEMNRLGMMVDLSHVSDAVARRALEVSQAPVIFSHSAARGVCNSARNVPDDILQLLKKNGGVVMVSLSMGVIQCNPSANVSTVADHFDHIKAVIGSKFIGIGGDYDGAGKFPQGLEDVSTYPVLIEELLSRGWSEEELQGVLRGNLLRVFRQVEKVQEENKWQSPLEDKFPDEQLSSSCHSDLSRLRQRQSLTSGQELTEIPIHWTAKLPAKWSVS

Binder | binding result (mDPEP3) | binding result [1] | binding result [4] | Kd (hDPEP3-ECD-His) | binding result [5] | binding result (hDPEP1-His) | other results
B1 | no binding (tested: 1 ug/mL) | no binding (tested: 1 ug/mL) | – | – | – | – | binding result [2]: no binding (tested: 1 ug/mL); binding result [3]: binds
B2 | no binding (tested: 1 ug/mL) | no binding (tested: 1 ug/mL) | binds | ≥ 5 nM and ≤ 10 nM | – | – | binding result (cDPEP3): no binding (tested: 1 ug/mL)
B3 | – | – | binds | < 5 nM | – | – | –
B4 | – | – | – | – | no binding | no binding | binding result [6]: binds
B5 | – | – | – | – | no binding | no binding | –
